Results on 1 substance are retold here after patent publication EP1313846B1.

The experiment has as its target Savinase® (subtilisin 309) (UniProt P29600). Kind of experiment: cell-based or functional assay.
UniProt P29600, sequence (P29600 whole entry): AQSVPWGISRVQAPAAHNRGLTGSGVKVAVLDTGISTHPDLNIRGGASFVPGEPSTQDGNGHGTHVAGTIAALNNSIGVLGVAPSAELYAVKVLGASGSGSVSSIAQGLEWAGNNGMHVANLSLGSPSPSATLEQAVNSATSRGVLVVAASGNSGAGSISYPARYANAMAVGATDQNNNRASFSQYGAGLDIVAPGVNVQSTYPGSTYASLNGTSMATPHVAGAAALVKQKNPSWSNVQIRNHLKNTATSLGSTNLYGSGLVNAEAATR

Turning to “trypsin inhibitor type IV-0 (Ovo-inhibitor), Sigma T-1886 (from UniProt P10184 69-517)”, the RA (%) (Residual Activity, Ovo-inhibition Assay; hydrolysis of Suc-Ala-Ala-Pro-Phe-pNA with and without inhibitor) is below 5%.
